This note sets out measurements from article PMC9413441.

The assay deals with SNAP-Protein G. Briefly: titration on hydrogel beads, read by flow cytometry of the beads; SNAP-Protein G covalently immobilised on PHD beads (20 um, 50 uM BG); titration series of fluorescently labelled mouse IgG2b at room temperature with rolling for the indicated times, then washed; mean of triplicates fitted to fluorescence = (fluorescencemax x [IgG])/(KD + [IgG]).

On to “fluorescently labeled mouse IgG2b (antibody)”, for which the Kd is 30.1 nM.
